For 36 substances, In Vitro Activity (units/ml), Specific Activity (units/ ng) and IN VITRO ACTIVITY U/mg X10E6 results are on record in patent EP0811064B1.

The target in test [1] is full length human mpl receptor expressed on 32D-mpl cells (human) (UniProt P40238). The test is described as follows: cell-based or functional assay.
The target is the same in test [2]. In words: cell-based or functional assay. This is another data set of the same source.

Where “and” joins values, the source holds several entries; their conditions need not be identical. Equal entries are not always repeated. Where two headings read alike, the source gives them in different places.

On to “mpl ligand analog N27 [Asn^119, Ser^121] mpl ligand 1-174”, for which, in test [1], the In Vitro Activity (units/ml) was 338 units/ml and the Specific Activity (units/ ng) is 75 units/ng.

With “mpl ligand analog N39 [Asn^30, Thr^32, Asn^120, Thr^122, Asn^55, Thr^57, Thr^163, Asn^164, Thr^166] mpl ligand 1-174”, in test [1], the In Vitro Activity (units/ml) came out at 17700 units/ml and the Specific Activity (units/ ng) was found to be 139 units/ng.

As to “mpl ligand analog N30 [Thr^163, Asn^164] mpl ligand 1-174”, in test [1], the In Vitro Activity (units/ml) is 15600 units/ml and the Specific Activity (units/ ng) came out at 122 units/ng.

For the substance “mpl ligand analog N38 [Thr^163, Asn^164, Thr^166] mpl ligand 1-174”, in test [1], the In Vitro Activity (units/ml) turned out to be 3900 units/ml and the Specific Activity (units/ ng) was found to be 156 units/ng.

In test [2], “mpl ligand analog N13 [Asn^53, Thr^55] mpl ligand 1-174” registered an In Vitro Activity (units/ml) of 18000 units/ml and a Specific Activity (units/ ng) of 269 units/ng.

As to “mpl ligand analog N4 [Asn^30, Thr^32] mpl ligand 1-174”, in test [2], the IN VITRO ACTIVITY U/mg X10E6 amounted to 6e+07 U/mg, the In Vitro Activity (units/ml) was 8830 units/ml and the Specific Activity (units/ ng) is 232 units/ng.

In test [2], “mpl ligand analog N14 [Asn^58, Thr^60] mpl ligand 1-174” yielded an In Vitro Activity (units/ml) of 4850 units/ml and a Specific Activity (units/ ng) of 271 units/ng.

In test [1], “mpl ligand analog N25 [Asn^81, Thr^83] mpl ligand 1-174” gave an In Vitro Activity (units/ml) of 123 units/ml and a Specific Activity (units/ ng) of 559 units/ng.

In test [1], “mpl ligand analog N26 [Asn^118, Ser^120] mpl ligand 1-174” came in with an In Vitro Activity (units/ml) of 96 units/ml and a Specific Activity (units/ ng) of 106 units/ng.

In test [2], human mpl ligand 1-332 (CHO) came in with an IN VITRO ACTIVITY U/mg X10E6 of 4.1e+07 U/mg.

The substance “mpl ligand analog N20 [Asn^39, Ser^41] mpl ligand 1-174” came in with an In Vitro Activity (units/ml) in test [1] below 10 units/ml.

In test [1], “mpl ligand analog N18 [Asn^23, Ser^25] mpl ligand 1-174” came in with an In Vitro Activity (units/ml) of 5 units/ml and a Specific Activity (units/ ng) of 2.5 units/ng.

In the case of “mpl ligand analog N15 [Asn^30, Thr^32, Asn^120, Thr^122] mpl ligand 1-174”, in test [2], the IN VITRO ACTIVITY U/mg X10E6 came to 9.2e+07 U/mg, the In Vitro Activity (units/ml) came out at 6420 units/ml and the Specific Activity (units/ ng) is 247 units/ng. Further, in test [1], the In Vitro Activity (units/ml) was found to be 7000 units/ml and the Specific Activity (units/ ng) stood at 156 units/ng.

As for “mpl ligand analog N11 [Ser^36, Asn^38, Thr^40] mpl ligand 1-174”, in test [2], the In Vitro Activity (units/ml) is below 10 units/ml and the Specific Activity (units/ ng) is below 8 units/ng.

In test [1], “mpl ligand analog N40 (N4+N10+N36+N38 changes in mpl ligand 1-199)” gave an In Vitro Activity (units/ml) of 19700 units/ml and a Specific Activity (units/ ng) of 147 units/ng.

“mpl ligand analog N33 [Asn^30, Thr^32, Asn^120, Thr^122, Asn^55'(i), Thr^57] mpl ligand 1-174”: in test [1], the In Vitro Activity (units/ml) was 10100 units/ml and the Specific Activity (units/ ng) came out at 129 units/ng.

Regarding mpl ligand 1-183 (N16), the In Vitro Activity (units/ml) in test [1] was 9280 units/ml.

Regarding “mpl ligand analog N7 [Asn^82, Ala^83] mpl ligand 1-174”, in test [2], the In Vitro Activity (units/ml) is 2660 units/ml and 3080 units/ml; the Specific Activity (units/ ng) was 443 units/ng and 655 units/ng.

In test [1], “mpl ligand analog N29 [Asn^30, Ser^32, Asn^120, Ser^122] mpl ligand 1-174” displayed an In Vitro Activity (units/ml) of 1630 units/ml and a Specific Activity (units/ ng) of 108 units/ng.

For “mpl ligand analog N24 [Asn^57, Ser^59] mpl ligand 1-174”, in test [1], the In Vitro Activity (units/ml) was determined as 458 units/ml and the Specific Activity (units/ ng) was 86 units/ng.

In test [2], “mpl ligand analog N5 [Asn^38, Thr^40] mpl ligand 1-174” gave an In Vitro Activity (units/ml) below 10 units/ml and a Specific Activity (units/ ng) below 8 units/ng.

Regarding “mpl ligand analog N36 [Asn^55, Thr^57] mpl ligand 1-174”, in test [1], the In Vitro Activity (units/ml) is 5810 units/ml and the Specific Activity (units/ ng) is 121 units/ng.

In test [2], “mpl ligand analog N6 [Asn^86] mpl ligand 1-174” showed an In Vitro Activity (units/ml) below 10 units/ml and a Specific Activity (units/ ng) below 22 units/ng.

In test [1], mpl ligand 1-199 (N31) returned an In Vitro Activity (units/ml) of 19000 units/ml and a Specific Activity (units/ ng) of 122 units/ng.

Take “mpl ligand analog N9 [Asn^92] mpl ligand 1-174”: in test [2], the In Vitro Activity (units/ml) was found to be 1970 units/ml and the Specific Activity (units/ ng) came to 188 units/ng.

Turning to “mpl ligand analog N10 [Asn^120, Thr^122] mpl ligand 1-174”, in test [2], the In Vitro Activity (units/ml) was 5940 units/ml and 9690 units/ml; the Specific Activity (units/ ng) was 291 units/ng and 288 units/ng.

Take “mpl ligand analog N22 [Asn^52, Thr^54] mpl ligand 1-174”: in test [1], the In Vitro Activity (units/ml) was 856 units/ml and the Specific Activity (units/ ng) is 428 units/ng.

As for “mpl ligand analog N35 (N4+N23+N30 changes in mpl ligand 1-199)”, in test [1], the In Vitro Activity (units/ml) was 13100 units/ml and the Specific Activity (units/ ng) turned out to be 76 units/ng.

Regarding “mpl ligand analog N34 [Asn^30, Thr^32, Asn^55'(i), Thr^57, Thr^163, Asn^164] mpl ligand 1-174”, in test [1], the In Vitro Activity (units/ml) came out at 13500 units/ml and the Specific Activity (units/ ng) is 120 units/ng.

For the substance “mpl ligand analog N3 [Asn^25] mpl ligand 1-174”, in test [2], the In Vitro Activity (units/ml) amounted to 636 units/ml and the Specific Activity (units/ ng) turned out to be 344 units/ng.

For the substance “mpl ligand analog N21 [Asn^54, Ser^56] mpl ligand 1-174”, in test [1], the In Vitro Activity (units/ml) is 4380 units/ml and the Specific Activity (units/ ng) is 146 units/ng.

In test [2], Met-Lys-mpl ligand 1-174 (E. coli) gave an IN VITRO ACTIVITY U/mg X10E6 of 1.3e+07 U/mg.

Regarding “mpl ligand analog N23 [Asn^55'(i), Thr^57] mpl ligand 1-174”, in test [1], the In Vitro Activity (units/ml) was 1060 units/ml and the Specific Activity (units/ ng) came out at 96 units/ng.

mpl ligand 1-191 (N17) showed an In Vitro Activity (units/ml) in test [1] of 11 units/ml.

Substance human mpl ligand 1-163 (CHO) had an IN VITRO ACTIVITY U/mg X10E6 in test [2] of 8.6e+07 U/mg.

In test [1], “mpl ligand analog N37 [Asn^56] mpl ligand 1-174” had an In Vitro Activity (units/ml) of 4500 units/ml and a Specific Activity (units/ ng) of 141 units/ng.
